Laboratory results published in patent publication US20110286916A1 (published 2011).
Where a chain is given by its changes, count along the chain named.

B1: N1wc15 (scFv, V domains shown)
VH: QVQLQQSGAEVKKPGASVKVSCKASGYNFTGYYMHWVRQAPGQGLEWMGWINPNSGGTNYAQKFQGRVTMTRDTSISTAYMELSRLRSDDTAVYYCATDSFDYWGQGTMVTVSS
VL: not shown
notes: phage scFv
B2: N1wc102 (scFv, V domains shown)
VH: B1 VH with Q5V, S17P, T69A
VL: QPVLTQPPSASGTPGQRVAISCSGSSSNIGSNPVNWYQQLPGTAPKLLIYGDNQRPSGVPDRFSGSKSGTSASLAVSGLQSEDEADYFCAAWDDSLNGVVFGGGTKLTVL
notes: phage scFv
B3: N1wc135 (scFv, V domains shown)
VH: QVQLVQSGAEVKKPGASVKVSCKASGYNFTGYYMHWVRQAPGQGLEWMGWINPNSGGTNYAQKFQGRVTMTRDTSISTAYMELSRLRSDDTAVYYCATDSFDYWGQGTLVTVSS
VL: LPVLTQPPSASGTPGQRVIISCSGSSSNIGSNYVYWYQQLPGTAPKLLIYRNNQRPSGVPDRFSGSKSGTSASLAISGLRSEDEADYHCAAWDDSLSGVVFGGGTKLTVL
notes: phage scFv
B4: N1wc248 (scFv, V domains shown)
VH: B1 VH with Q1E, Q5V, T91S, Q106R, M109L
VL: B3 VL with L1Q, P2S, I19T, Y33S, L40F, G69D, H88Y, A91T
notes: phage scFv
B5: N1wc403 (scFv, V domains shown)
VH: B1 VH with Q1E, Q5V, Q106R, M109L
VL: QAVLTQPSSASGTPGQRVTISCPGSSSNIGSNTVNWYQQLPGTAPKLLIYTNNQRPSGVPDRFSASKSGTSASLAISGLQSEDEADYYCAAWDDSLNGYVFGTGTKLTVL
notes: phage scFv
B6: N1wc516 (scFv, V domains shown)
VH: B1 VH with Q1E, Q5V, Q6E, T69I, R87T, Q106R, M109L
VL: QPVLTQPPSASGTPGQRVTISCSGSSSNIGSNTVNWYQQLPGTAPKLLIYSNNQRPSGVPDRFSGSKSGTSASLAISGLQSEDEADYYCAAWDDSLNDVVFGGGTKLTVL
notes: phage scFv
B7: N1wc540 (scFv, V domains shown)
VH: B1 VH with Q1E, Q5V
VL: QAVLTQPSSASGTPGQRVTISCSGSSSNIGSYTVNWYQQVPGTAPKLLIYSNNQRPSGVPERFSGSKSGTSASLAISGLQSEDEADYYCAAWDDSLSDVLFGGGTKLTVL
notes: phage scFv
B8: N1wc572 (scFv, V domains shown)
VH: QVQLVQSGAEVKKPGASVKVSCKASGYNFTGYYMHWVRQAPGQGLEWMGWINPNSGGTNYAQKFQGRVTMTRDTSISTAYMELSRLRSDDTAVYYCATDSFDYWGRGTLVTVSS
VL: LPVLTQPPSASGTPGQRVTISCSGSSSNIGSNPVNWYQQLPGSAPKLLVYSDDQRPSGVPDRFSGSKSGASASLAISGLQSEDESDYYCAAWDDSLNAVVFGGGTKVTVL
notes: phage scFv
B9: N1wc624 (scFv, V domains shown)
VH: B1 VH with R87G, Q106R, M109L
VL: not shown
notes: phage scFv
B10: N1wc160 (scFv, V domains shown)
VH: B1 VH with Q6E, Q106R
VL: SYVLTQPPSASGTPGQRVTISCSGSSSNIGSNTVHWYQQLPETAPKLLIYTNNQRPSGVPDRFSGSKSGTSASLAISGLQSEDEADYYCASWDDSLKAYVFGTRTKLTVL
notes: phage scFv
B11: N1wc175 (scFv, V domains shown)
VH: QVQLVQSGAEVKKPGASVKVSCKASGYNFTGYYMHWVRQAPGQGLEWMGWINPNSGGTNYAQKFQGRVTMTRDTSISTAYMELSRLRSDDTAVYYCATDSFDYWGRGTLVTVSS
VL: QSVLTQPPSASGTPGQRVTISCSGSRSSIGSNTVSWYQQLPGTAPKLIIYTNNQRPSGVPDRFSGSKSGTSATLAISGLQSEDEADYYCASWDDSLNDYVFGVGTKVTVL
notes: phage scFv
B12: N1wc202 (scFv, V domains shown)
VH: B1 VH with Q1E, Q5V, Q106R, M109L
VL: SYELTQPPSVSGTPGQRVTISCSGSSSNIESNAVHWYQHLPGRAPKLLIFSHNQRPSGVPARFSGSKSGTSASLAISGLQSEDEADYYCAAWDDSLSGYVFASGTKLTVL
notes: phage scFv
B13: N1wc520 (scFv, V domains shown)
VH: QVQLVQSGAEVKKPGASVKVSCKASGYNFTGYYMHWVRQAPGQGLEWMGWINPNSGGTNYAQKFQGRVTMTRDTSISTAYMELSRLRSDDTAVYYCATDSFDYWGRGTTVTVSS
VL: B12 VL with E3V, L107V
notes: phage scFv
B14: N1wc625 (scFv, V domains shown)
VH: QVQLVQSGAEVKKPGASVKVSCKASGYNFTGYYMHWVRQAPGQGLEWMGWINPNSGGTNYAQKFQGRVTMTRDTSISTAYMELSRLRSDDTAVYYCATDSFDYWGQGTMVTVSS
VL: QSVLTQPPSASGTPGQRVTISCSGGRSNIGTNYVYWYQKLPGTAPKSLIYTTNQRPSGVPDRFSGSKAGTSASLAISGLRSEDEGDYYCASWDESLNGVVFGGGTKVTVL
notes: phage scFv
B15: N1wc13 (scFv, V domains shown)
VH: B1 VH with Q5V, D73E, Q106R
VL: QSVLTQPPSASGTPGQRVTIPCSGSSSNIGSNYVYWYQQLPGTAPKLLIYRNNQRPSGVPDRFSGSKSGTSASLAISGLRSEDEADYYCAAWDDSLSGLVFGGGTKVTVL
notes: phage scFv
B16: N1wc79 (scFv, V domains shown)
VH: B1 VH
VL: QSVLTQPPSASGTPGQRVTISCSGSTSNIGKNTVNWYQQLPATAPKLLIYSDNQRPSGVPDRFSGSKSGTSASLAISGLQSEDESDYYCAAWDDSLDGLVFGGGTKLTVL
notes: phage scFv
B17: hN1S3-184 (scFv, V domains shown)
VH: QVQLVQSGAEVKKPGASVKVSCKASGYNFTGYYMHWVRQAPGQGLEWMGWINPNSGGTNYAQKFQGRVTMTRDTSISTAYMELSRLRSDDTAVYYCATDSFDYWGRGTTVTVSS
VL: B3 VL with L1Q, P2S, I19T, S31G, N52S, H88Y, S97H, V100I
notes: phage scFv
B18: N1wc130 (scFv, V domains shown)
VH: B1 VH with S88P, Q106K
VL: QAVLTQPSSVSGAPGQRVTISCTGTGSNIGAGYDVHWYQQLPGTAPKLLIYANTNRPSGVPDRFSGSKSGTSASLAITGLQAEDEADYYCQSYDSSLSGSVFGGGTKVTVL
notes: phage scFv
B19: N1wc225 (scFv, V domains shown)
VH: B1 VH with Q106R
VL: B18 VL with A2S, L4V, S8P, T25S, G26S, A52G, T54S, V108L
B20: hN1S3-035 (scFv, V domains shown)
VH: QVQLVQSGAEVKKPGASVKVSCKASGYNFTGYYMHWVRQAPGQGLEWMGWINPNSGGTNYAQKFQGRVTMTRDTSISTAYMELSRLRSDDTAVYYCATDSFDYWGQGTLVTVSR
VL: B18 VL with T25S, G26S, A52G, T54S
notes: phage scFv
B21: hN1S3-147 (scFv, V domains shown)
VH: QVQLVQSGPEVKKPGTSVKVSCKASGFTFTSSAVQWVRQARGQRLEWIGWIVVGSGNTNYAQKFQERVTITRDMSTSTAYMELSSLRSEDTAVYYCVADTVYWGKGTLVTVSS
VL: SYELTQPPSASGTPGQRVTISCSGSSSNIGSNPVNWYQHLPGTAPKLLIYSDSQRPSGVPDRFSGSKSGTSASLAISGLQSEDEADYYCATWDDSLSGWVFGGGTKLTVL
notes: phage scFv
B22: hN1S3-082 (scFv, V domains shown)
VH: B21 VH with K105R
VL: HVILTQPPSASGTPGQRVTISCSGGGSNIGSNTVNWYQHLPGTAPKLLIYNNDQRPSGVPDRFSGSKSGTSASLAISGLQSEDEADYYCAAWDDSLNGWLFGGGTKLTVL
notes: phage scFv
B23: hN1S3-077 (scFv, V domains shown)
VH: EVQLVQSGAEVKKPGAPVKVSCKTSGYGFSNYYMHWVRQAPGQGLEWLGMINPSDGSQHFAQRFRDRVSFTSDTSTSAVYMELAGLRSDDTAVYYCAREKANSMYFDYWGQGTLVTVSS
VL: QSVVTQPPSLSAAPGQRVTISCSGSHSNIGNFYVSWYQQVPGAAPKLLIYDNNERPSGIPDRFSGSKSGTSATLDITGLQTGDEADYYCSTWDRSLSASVFGSGTKLTVL
notes: phage scFv
B24: hN1S3-083 (scFv, V domains shown)
VH: QVQLQQSGPGLVKPSQTLSLTCAISGDSISSSSATWNWIRQSPSRGLEWLGRTYYRSKWYNDYAVSVKSRITIDPDTSKNQFSLQLNSVTPEDTAVYYCARQLGGRIEFWGQGTLVTVSS
VL: QSVLTQPPSASGSPGRSVTISCTGTSRDVGAYNYVSWYQQHPGEAPKLLISEVTKRPSGVPARFSASKSGNTASLTISGLQAEDEGDYYCSSYAGSDSWVFGGGTKLTVL
notes: phage scFv
B25: hN1S3-133 (scFv, V domains shown)
VH: B21 VH with K105Q
VL: QSVLTQPPSVSEAPRQRVTISCSGSSSNIGNNAVNWYQQLPGEAPKLLIYYDDLLPSGVSDRFSGSKSGSSASLAISGLQAEDEADYYCATWDDSLNAWVFGGGTKVTVL
notes: phage scFv
B26: hN1S3-141 (scFv, V domains shown)
VH: B1 VH with Q5V, M34I, T69I, Q106R, M109L
VL: QSVLTQPPSASGTPGQRVTISCSGSYSNIGSNYVYWYQQFPGTAPKLLIYTNNQRPSGVPDRFSGSKSGSSASLAISGLRSEDEADYYCAAWDDSVGVLLFGGGTKLTVL
notes: phage scFv
B27: hN1S3-130 (scFv, V domains shown)
VH: KVQLVQSGAEVKKPGASVKVSCKASGYTFTDFYIHWVRQAPGQGLEWMGWINSKSGDTHYAQKFQGRVTLTRDTSTDTAYMELSRLTSDDTAVYYCARGAYDYVWGSSRYVADAFDIWGRGTMVTVSS
VL: DIVMTQSPSTLSASVGDRVTITCRASQGISSWLAWYQQKPGRAPKVLIYKASTLESGVPSRFSGSGSGTDFTLTISSLQPEDFATYYCQQSYSTPWTFGQGTKLEIK
notes: phage scFv
B28: N1wc72 (scFv, V domains shown)
VH: B1 VH with Q1E, Q5V, Q106K
VL: B26 VL with S2P, L107V
notes: phage scFv
B29: N1wc131 (scFv, V domains shown)
VH: B1 VH with Q1E, Q5V, V11A, M109L
VL: SYELTQPPSASGTPGQRVTISCSGTSSNIGINYVYWYQQLPRTAPKLLIYYNNQRPSGVPDRFSGSRSGTSASLAISGLRSEDEADYYCAAWDDSLSGLVFGTGTKLTVL
notes: phage scFv
B30: N1wc476 (scFv, V domains shown)
VH: B1 VH with Q1E, Q5V, M109L
VL: QAVLTQPSSVSGTPGQTVTISCSGSNSNIGNNYVYWYQQLPGSAPKVVIYRNHQRPSGVPDRFSGSKSGTAASLAISGLRSEDEADYYCASWDDSLSGLVFGGGTKLTVL
notes: phage scFv

Biological target: T1, human full-length Notch1 with C-terminal FLAG tag, stably expressed on 293 FlpIn (TREx) cells (human, UniProt P46531 19-2555)
T1 construct: tetracycline/doxycycline-induced expression from pcDNA5/FRT/TO-HN1+FLAG; also called hN1; 293_N1
Assay: FACS, phage scFv

| Binder | binding result |
| --- | --- |
| B1 | binds |
| B2 | binds |
| B3 | binds |
| B4 | binds |
| B5 | binds |
| B6 | binds |
| B7 | binds |
| B8 | binds |
| B9 | binds |
| B10 | binds |
| B11 | binds |
| B12 | binds |
| B13 | binds |
| B14 | binds |

Biological target: T2, human full-length Notch3 with C-terminal FLAG tag, stably expressed on 293 FlpIn (TREx) cells (human, UniProt Q9UM47 40-2321)
T2 construct: whole, on cells; made by the same strategy as the Notch1 line; also called 293-N3; hN3
Assay: FACS, phage scFv

| Binder | binding result |
| --- | --- |
| B15 | binds |
| B1 | binds |
| B16 | binds |
| B2 | binds |
| B3 | binds |
| B4 | binds |
| B5 | binds |
| B6 | binds |
| B7 | binds |
| B8 | binds |
| B9 | binds |
| B17 | binds |
| B18 | binds |
| B19 | binds |
| B20 | binds |
| B21 | binds |
| B22 | binds |
| B23 | binds |
| B24 | binds |
| B25 | binds |
| B26 | binds |
| B27 | binds |
| B28 | binds |
| B29 | binds |
| B30 | binds |
